Assay results published in article PMC10897489.

Target: GST-NSP3 1–181 (SARS-CoV-2)
Test: ITC

In the case of “His-FXR1 215–360 (from UniProt A0A0F7L1S3 215-360) (domain or fragment)”, the Kd is reported as 2.3 to 2.9 µM.
